The supplement of paper PMC11780869

Test system: Bacillus subtilis
Assay: cleaved RNA product abundance (RNA/gDNA barcode ratio) relative to median wild-type variant (ratio to wild type); higher = more accumulation of the downstream cleavage product
Details: cleavage site: cggR-gapA (positions -7 to +36 mutated)
How it was run: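 Oligos with a 9% error rate were used to build barcoded, mutagenized RNase Y cleavage-site windows within truncated aprE or tetM reporter mRNAs, which were integrated into the B. subtilis chromosome. Cultures were grown in LB at 37°C between OD600 0.0003 and 0.3. Cleaved RNA was gel-selected, reverse transcribed and barcode-sequenced, as were genomic DNA barcodes, and UMIs were collapsed. Cleaved product abundance is the scaled RNA:gDNA barcode ratio, with the median construct carrying the unmutated site as reference.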

[1] = experiment (reporter, strain, medium): exp 4a: truncated aprE reporter, strain BJT201 with 2% xylose (RNase J1 expressed)
[2] = experiment (reporter, strain, medium): exp 2b: truncated aprE reporter, strain BJT200
[3] = experiment (reporter, strain, medium): exp 6: tetM reporter, strain 168

| Sequence | cleaved RNA product abundance [1] | cleaved RNA product abundance [2] | cleaved RNA product abundance [3] |
| --- | --- | --- | --- |
| ACAGACGAAGGAGCCGCAAAGAAGTTAGTAAGGTATGAATAATCCCTCAATATAAATATCTCTCACTTATTTAAA | 0.135 | – | – |
| ACAGACGAAGGAGCCGCAAAGAAGTTAGTAATGGATGAATAATCCCTCAATATAAATATCTCTCACTTATTTAAA | 0.141 | – | – |
| ACAGACGAAGGAGCCGCAAAGAAGTTAGTACGGGATGAATAATCCCTCAATATAAATATCTCTCACTTATTTAAA | – | 0.269 | – |
| ACAGACGAAGGAGCCGCAAAGAAGTTATAAAAGGATAAATAATCCCTCAATATAAATATCTCTCACTTATTTAAA | – | 0.141 | – |
| ACAGACGAAGGAGCCGCAAAGAAGTTATAAAAGGATGAATAATCCCTCAATATAAATATCTCTCACTTATTTAAA | 0.165 | 0.153 | – |
| ACAGACGAAGGAGCCGCAAAGAAGTTATAAACGGATGAATAATCCCTCAATATAAATATCTCTCACTTATTTAAA | 0.181 | 0.132 | – |
| ACAGACGAAGGAGCCGCAAAGAAGTTATAAAGAGATGAATAATCCCTCAATATAAATATCTCTCACTTATTTAAA | 0.137 | 0.11 | – |
| ACAGACGAAGGAGCCGCAAAGAAGTTATAAAGGAATGAATAATCCCTCAATATAAATATCTCTCACTTATTTAAA | 0.124 | 0.0926 | – |
| ACAGACGAAGGAGCCGCAAAGAAGTTATAAAGGCATGAATAATCCCTCAATATAAATATCTCTCACTTATTTAAA | 0.113 | 0.122 | – |
| ACAGACGAAGGAGCCGCAAAGAAGTTATAAAGGGAAGAATAATCCCTCAATATAAATATCTCTCACTTATTTAAA | 0.322 | 0.174 | – |
| ACAGACGAAGGAGCCGCAAAGAAGTTATAAAGGGACGAATAATCCCTCAATATAAATATCTCTCACTTATTTAAA | 0.326 | – | – |
| ACAGACGAAGGAGCCGCAAAGAAGTTATAAAGGGATAAATAATCCCTCAATATAAATATCTCTCACTTATTTAAA | 0.358 | 0.316 | – |
| ACAGACGAAGGAGCCGCAAAGAAGTTATAAAGGGATCAATAATCCCTCAATATAAATATCTCTCACTTATTTAAA | 0.434 | 0.26 | – |
| ACAGACGAAGGAGCCGCAAAGAAGTTATAAAGGGATGAAAAATCCCTCAATATAAATATCTCTCACTTATTTAAA | 0.4 | – | – |
| ACAGACGAAGGAGCCGCAAAGAAGTTATAAAGGGATGAACAATCCCTCAATATAAATATCTCTCACTTATTTAAA | – | 0.261 | – |
| ACAGACGAAGGAGCCGCAAAGAAGTTATAAAGGGATGAATAAACCCTCAATATAAATATCTCTCACTTATTTAAA | 0.197 | 0.145 | – |
| ACAGACGAAGGAGCCGCAAAGAAGTTATAAAGGGATGAATAACCCCTCAATATAAATATCTCTCACTTATTTAAA | 0.261 | – | – |
| ACAGACGAAGGAGCCGCAAAGAAGTTATAAAGGGATGAATAAGCCCTCAATATAAATATCTCTCACTTATTTAAA | 0.172 | – | – |
| ACAGACGAAGGAGCCGCAAAGAAGTTATAAAGGGATGAATAATCACTCAATATAAATATCTCTCACTTATTTAAA | 0.169 | 0.107 | – |
| ACAGACGAAGGAGCCGCAAAGAAGTTATAAAGGGATGAATAATCCATCAATATAAATATCTCTCACTTATTTAAA | 0.26 | – | – |

| Sequence | cleaved RNA product abundance [1] | cleaved RNA product abundance [2] | cleaved RNA product abundance [3] |
| --- | --- | --- | --- |
| ACAGACGAAGGAGCCGCAAAGAAGTTATAAAGGGATGAATAATCCCACAATATAAATATCTCTCACTTATTTAAA | 0.183 | 0.175 | – |
| ACAGACGAAGGAGCCGCAAAGAAGTTATAAAGGGATGAATAATCCCTAAATATAAATATCTCTCACTTATTTAAA | 0.626 | – | – |
| ACAGACGAAGGAGCCGCAAAGAAGTTATAAAGGGATGAATAATCCCTCAAAATAAATATCTCTCACTTATTTAAA | 0.292 | – | – |
| ACAGACGAAGGAGCCGCAAAGAAGTTATAAAGGGATGAATAATCCCTCAACATAAATATCTCTCACTTATTTAAA | 0.304 | – | – |
| ACAGACGAAGGAGCCGCAAAGAAGTTATAAAGGGATGAATAATCCCTCAATAAAAATATCTCTCACTTATTTAAA | 0.0461 | 0.125 | – |
| ACAGACGAAGGAGCCGCAAAGAAGTTATAAAGGGATGAATAATCCCTCAATATAAAAATCTCTCACTTATTTAAA | – | 0.338 | – |
| ACAGACGAAGGAGCCGCAAAGAAGTTATAAAGGGATGAATAATCCCTCAATATAAATAACTCTCACTTATTTAAA | 0.424 | – | – |
| ACAGACGAAGGAGCCGCAAAGAAGTTATAAAGGGATGAATAATCCCTCAATATAAATATATCTCACTTATTTAAA | 0.419 | – | – |
| ACAGACGAAGGAGCCGCAAAGAAGTTATAAAGGGATGAATAATCCCTCAATATAAATATCTCTCACTTATTTAAA | 0.454 | 0.363 | 0.4 |
| ACAGACGAAGGAGCCGCAAAGAAGTTATAAAGGGATGAATAATCCCTCAATATAAATATTTCTCACTTATTTAAA | 0.51 | – | – |
| ACAGACGAAGGAGCCGCAAAGAAGTTATAAAGGGATGAATAATCCCTCAATATAAATTTCTCTCACTTATTTAAA | 0.387 | – | – |
| ACAGACGAAGGAGCCGCAAAGAAGTTATAAAGGGATGAATAATCCCTCAATATAATTATCTCTCACTTATTTAAA | 0.171 | – | – |
| ACAGACGAAGGAGCCGCAAAGAAGTTATAAAGGGATGAATAATCCCTCAATATAGATATCTCTCACTTATTTAAA | 0.475 | 0.19 | – |
| ACAGACGAAGGAGCCGCAAAGAAGTTATAAAGGGATGAATAATCCCTCAATATATATATCTCTCACTTATTTAAA | 0.58 | 0.359 | – |
| ACAGACGAAGGAGCCGCAAAGAAGTTATAAAGGGATGAATAATCCCTCAATATTAATATCTCTCACTTATTTAAA | 0.105 | – | – |
| ACAGACGAAGGAGCCGCAAAGAAGTTATAAAGGGATGAATAATCCCTCAATTTAAATATCTCTCACTTATTTAAA | 0.152 | 0.146 | – |
| ACAGACGAAGGAGCCGCAAAGAAGTTATAAAGGGATGAATAATCCCTCACTATAAATATCTCTCACTTATTTAAA | 0.322 | – | – |
| ACAGACGAAGGAGCCGCAAAGAAGTTATAAAGGGATGAATAATCCCTCCATATAAATATCTCTCACTTATTTAAA | 0.266 | – | – |
| ACAGACGAAGGAGCCGCAAAGAAGTTATAAAGGGATGAATAATCCCTCTATATAAATATCTCTCACTTATTTAAA | 0.941 | – | – |
| ACAGACGAAGGAGCCGCAAAGAAGTTATAAAGGGATGAATAATCCCTGAATATAAATATCTCTCACTTATTTAAA | 0.634 | – | – |

| Sequence | cleaved RNA product abundance [1] | cleaved RNA product abundance [2] | cleaved RNA product abundance [3] |
| --- | --- | --- | --- |
| ACAGACGAAGGAGCCGCAAAGAAGTTATAAAGGGATGAATAATCCCTTAATATAAATATCTCTCACTTATTTAAA | 0.593 | 0.56 | – |
| ACAGACGAAGGAGCCGCAAAGAAGTTATAAAGGGATGAATAATCCGTCAATATAAATATCTCTCACTTATTTAAA | – | 0.154 | – |
| ACAGACGAAGGAGCCGCAAAGAAGTTATAAAGGGATGAATAATCCTTCAATATAAATATCTCTCACTTATTTAAA | 0.283 | 0.174 | – |
| ACAGACGAAGGAGCCGCAAAGAAGTTATAAAGGGATGAATAATCTCTCAATATAAATATCTCTCACTTATTTAAA | 0.338 | – | – |
| ACAGACGAAGGAGCCGCAAAGAAGTTATAAAGGGATGAATAATGCCTCAATATAAATATCTCTCACTTATTTAAA | – | 0.113 | – |
| ACAGACGAAGGAGCCGCAAAGAAGTTATAAAGGGATGAATAATTCCTCAATATAAATATCTCTCACTTATTTAAA | 0.293 | – | – |
| ACAGACGAAGGAGCCGCAAAGAAGTTATAAAGGGATGAATACTCCCTCAATATAAATATCTCTCACTTATTTAAA | 0.287 | – | – |
| ACAGACGAAGGAGCCGCAAAGAAGTTATAAAGGGATGAATATTCCCTCAATATAAATATCTCTCACTTATTTAAA | 0.281 | – | – |
| ACAGACGAAGGAGCCGCAAAGAAGTTATAAAGGGATGAATGATCCCTCAATATAAATATCTCTCACTTATTTAAA | 0.273 | 0.193 | – |
| ACAGACGAAGGAGCCGCAAAGAAGTTATAAAGGGATGAATTATCCCTCAATATAAATATCTCTCACTTATTTAAA | 0.469 | 0.279 | – |
| ACAGACGAAGGAGCCGCAAAGAAGTTATAAAGGGATGACTAATCCCTCAATATAAATATCTCTCACTTATTTAAA | 0.286 | – | 0.319 |
| ACAGACGAAGGAGCCGCAAAGAAGTTATAAAGGGATGCATAATCCCTCAATATAAATATCTCTCACTTATTTAAA | 0.241 | 0.309 | – |
| ACAGACGAAGGAGCCGCAAAGAAGTTATAAAGGGATGTATAATCCCTCAATATAAATATCTCTCACTTATTTAAA | 0.401 | 0.322 | – |
| ACAGACGAAGGAGCCGCAAAGAAGTTATAAAGGGATTAATAATCCCTCAATATAAATATCTCTCACTTATTTAAA | 0.362 | 0.333 | – |
| ACAGACGAAGGAGCCGCAAAGAAGTTATAAAGGGCTGAATAATCCCTCAATATAAATATCTCTCACTTATTTAAA | 0.286 | – | – |
| ACAGACGAAGGAGCCGCAAAGAAGTTATAAAGGGGTGAATAATCCCTCAATATAAATATCTCTCACTTATTTAAA | 0.422 | – | – |
| ACAGACGAAGGAGCCGCAAAGAAGTTATAAAGGGTTGAATAATCCCTCAATATAAATATCTCTCACTTATTTAAA | 0.24 | 0.163 | – |
| ACAGACGAAGGAGCCGCAAAGAAGTTATAAAGGTATGAATAATCCCTCAATATAAATATCTCTCACTTATTTAAA | 0.0975 | 0.0925 | – |
